Laboratory results taken from patent publication US20090136450A1, “THERAPY FOR NEUROLOGICAL DISEASES” (priority 2005, published 2009).

Tested on: Experimental Autoimmune Encephalomyelitis (EAE)
Test: chronic EAE model in C57BY6 mice, clinical score
Type: in vivo
Details: chronic EAE in C57BY6 mice (MOG/CFA + B. pertussis toxin); subcutaneous daily treatment, 20,000 U/mouse, started at onset of the disease, 28 to 30 days
Description: The most widely used animal model for multiple sclerosis is Experimental Autoimmune Encephalomyelitis (EAE), based on shared histopathological and clinical features with the human disease:
The chronic EAE model in C57BY6 mice shares some common traits with the primary progressive (PP) or secondary progressive (SP) forms of MS. Mice are immunized in both flanks at day 0 and day 7 with 200 μg s.c. of myelin oligodendrocyte glycoprotein (MOG) in Complete Freund's Adjuvant (CFA) and followed by two injections (on day 0 and day 2) with 500 ng i.p. of B. pertussis toxin.
Groups are composed of 10 to 13 EAE mice. Clinical scores, overall health status, body weight and mortality are recorded daily. Starting from day 7 the animals are individually examined for the presence of paralysis by means of a clinical score: 0=no sign of disease, 1=tail paralysis, 2=tail paralysis+hindlimb weakness or partial hindlimb paralysis, 3=tail paralysis+complete hindlimb paralysis, 4=tail paralysis+hindlimb paralysis+weakness or partial paralysis of forelimbs, 5=moribund or dead.
Starting from day 10-12, most animals are becoming increasingly paralysed.
Therapeutic treatments are started at the onset of the disease, thus once the disease is already established but still progressing and continued for 28 to 30 days. […]

B1: mIFNβ: mIFNβ (Serono Pharmaceutical Research Institute, Geneva), interferon beta given to EAE mice (protein, UniProt P01575 22-182, looked up)
Interferon beta: INYKQLQLQERTNIRKCQELLEQLNGKINLTYRADFKIPMEMTEKMQKSYTAFAIQEMLQNVFLVFRNNFSSTGWNETIVVRLLDELHQQTVFLKTVLEEKQEERLTWEMSSTALHLKSYYWRVQRYLKLMKYNSYAWMVVRAEIFRNFLIIRRLTRNFQN
- clinical output (severity of the disease, paralysis clinical score): significantly reducing the severity of the disease from complete hindlimb to partial hindlimb paralysis
